Test results taken from PMC8357417, “CTP and parS coordinate ParB partition complex dynamics and ParA-ATPase activation for ParABS-mediated DNA partitioning” (eLife, 2021).

Experiments:
EcoRI (Escherichia coli) = EcoRI (Escherichia coli) (UniProt P00642); conditions: cited from earlier work
[1] = molecular target: T1, ParAF (F-plasmid (E. coli)) (UniProt P62556)
T1 sequence: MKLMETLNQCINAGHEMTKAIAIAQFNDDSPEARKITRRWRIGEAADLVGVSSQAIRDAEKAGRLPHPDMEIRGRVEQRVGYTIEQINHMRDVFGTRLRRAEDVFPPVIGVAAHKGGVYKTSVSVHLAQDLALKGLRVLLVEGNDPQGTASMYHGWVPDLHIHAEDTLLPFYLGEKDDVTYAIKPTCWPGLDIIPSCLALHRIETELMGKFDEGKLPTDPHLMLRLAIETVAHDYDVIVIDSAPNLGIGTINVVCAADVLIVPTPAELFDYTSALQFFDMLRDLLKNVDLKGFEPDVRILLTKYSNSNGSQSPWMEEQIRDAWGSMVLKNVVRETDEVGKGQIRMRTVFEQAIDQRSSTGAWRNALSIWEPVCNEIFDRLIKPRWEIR

[2] = molecular target: T1, ParAF (F-plasmid (E. coli)); remark: listed apart in the source
[3] = substrate: Nc1ccn([C@@H]2O[C@H](COP(=O)(O)OP(=O)(O)OP(=O)(O)O)[C@@H](O)[C@H]2O)c(=O)n1; assay: phosphate release, MESG/purine nucleoside phosphorylase (EnzChek), initial rates; format: biochemical, Escherichia coli; conditions: no parSF DNA, 0.84 μM ParBF, 2 mM MgCl2, 100 mM NaCl, pH 7.5
[4] = molecular target: the molecule itself; assay: FRET or BRET; ParBF labelled with Alexa 488 or Alexa 594 mixed at equal concentrations, FRET efficiency in a plate reader; monomer to dimer; apparent KD
ParAF-eGFP [5] = molecular target: T2, ParAF-eGFP (F-plasmid (E. coli), UniProt P62556 1-388); assay: TIRF microscopy of fluorescent proteins on an nsDNA carpet; as a5, with CTP (2 mM) and the 24 bp parSF fragment (1.1 uM); apparent rate constants; conditions: both partners purified
T2 construct: ParA ATPase of the F plasmid (ParAF, also called SopA); SGGG linker between ParAF and eGFP; concentrations and ratios are per monomer; also called SopA; source: E. coli BL21 DE3 AI, purified (HisTrap, Mono Q, S200 size exclusion)
T2 sequence (looked up): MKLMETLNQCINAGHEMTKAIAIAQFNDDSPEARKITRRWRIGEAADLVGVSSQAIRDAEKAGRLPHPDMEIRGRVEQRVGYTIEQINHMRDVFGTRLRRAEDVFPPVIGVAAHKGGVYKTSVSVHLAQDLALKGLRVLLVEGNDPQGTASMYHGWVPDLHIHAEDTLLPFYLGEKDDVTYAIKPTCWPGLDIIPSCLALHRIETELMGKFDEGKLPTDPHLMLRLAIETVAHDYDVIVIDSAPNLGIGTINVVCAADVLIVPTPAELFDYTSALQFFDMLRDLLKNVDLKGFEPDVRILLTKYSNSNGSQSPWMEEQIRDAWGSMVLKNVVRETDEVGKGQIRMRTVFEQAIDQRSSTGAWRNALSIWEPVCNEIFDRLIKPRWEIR

ParAF-eGFP [6] = molecular target: T2, ParAF-eGFP; assay: TIRF microscopy of fluorescent proteins on an nsDNA carpet; as a1, with the 24 bp parSF DNA fragment (1.1 uM) in the sample; apparent rate constants; conditions: both partners purified
ParAF-eGFP [7] = molecular target: T2, ParAF-eGFP; assay: TIRF microscopy of fluorescent proteins on an nsDNA carpet; as a6, with CDP instead of CTP, with the 24 bp parSF fragment (1.1 uM); apparent rate constants; conditions: both partners purified
ParAF-eGFP [8] = molecular target: T2, ParAF-eGFP; assay: TIRF microscopy of fluorescent proteins on an nsDNA carpet; as a1, with ATPgammaS (1 mM) and CTP (2 mM), no parSF; wash with ATPgammaS and CTP; apparent rate constants; conditions: both partners purified
ParAF-eGFP [9] = molecular target: T2, ParAF-eGFP; assay: TIRF microscopy of fluorescent proteins on an nsDNA carpet; ParAF-eGFP (1 uM) and labelled ParBF variant (2 uM, or 10 uM for the 1-42-mCherry fusions) preincubated 10 min at room temperature with 1 mM ATPgammaS, infused over an nsDNA carpet, then washed with buffer containing ATPgammaS; no parSF, no C-nucleotide; 300 mM K-glutamate TIRFM buffer pH 7.5; apparent rate constants; conditions: both partners purified
ParAF-eGFP [10] = molecular target: T2, ParAF-eGFP; assay: TIRF microscopy of fluorescent proteins on an nsDNA carpet; as a1, but the wash buffer contained ATPgammaS and 10 uM ParBF^1-42-mCherry or ParBF^(1-42 R36A)-mCherry; apparent rate constants; conditions: both partners purified
ParAF-eGFP [11] = molecular target: T2, ParAF-eGFP; assay: TIRF microscopy of fluorescent proteins on an nsDNA carpet; ParAF-eGFP (1 uM) and labelled ParBF variant (2 uM, or 10 uM for the 1-42-mCherry fusions) preincubated 10 min at room temperature with 1 mM ATPgammaS, infused over an nsDNA carpet, then washed with buffer containing ATPgammaS; no parSF, no C-nucleotide; 300 mM K-glutamate TIRFM buffer pH 7.5; apparent rate constants; conditions: both partners purified; remark: listed apart in the source

In the case of EcoRI (from UniProt P00642), the Kd (EcoRI (Escherichia coli)) is listed as under 0.02 nM.

ParBF^1-42-mCherry-EcoRI^E111Q showed a ParAF-ATPase stimulation against ParBF^1-42-mCherry-EcoRI^E111Q concentration: KA (apparent total concentration for half-maximum stimulation); pBR322 nsDNA + EcoRI DNA fragment [1] of 0.16 µM, a ParAF-ATPase stimulation against ParBF^1-42-mCherry-EcoRI^E111Q concentration: KA (apparent total concentration for half-maximum stimulation); pBR322 nsDNA + Scram DNA [1] of 0.16 µM and a ParAF-ATPase stimulation against ParBF^1-42-mCherry-EcoRI^E111Q concentration: K (half) [2] of 0.15 µM.

B1: ParBF (Escherichia coli K-12) (protein)
chain: MKRAPVIPKHTLNTQPVEDTSLSTPAAPMVDSLIARVGVMARGNAITLPVCGRDVKFTLEVLRGDSVEKTSRVWSGNERDQELLTEDALDDLIPSFLLTGQQTPAFGRRVSGVIEIADGSRRRKAAALTESDYRVLVGELDDEQMAALSRLGNDYRPTSAYERGQRYASRLQNEFAGNISALADAENISRKIITRCINTAKLPKSVVALFSHPGELSARSGDALQKAFTDKEELLKQQASNLHEQKKAGVIFEAEEVITLLTSVLKTSSASRTSLSSRHQFAPGATVLYKGDKMVLNLDRSRVPTECIEKIEAILKELEKPAP
notes: full-length, C-terminal hexa-histidine tag kept, expressed in E. coli BL21 DE3 AI (plasmid pX8); dimer
For B1, the Km [3] was about 8 µM and the kcat [3] was about 0.00389 s⁻¹.

B2: ParBF (full-length), ParBF-Alexa647 (natural protein, F-plasmid (E. coli), UniProt P62558 1-323, looked up)
chain: MKRAPVIPKHTLNTQPVEDTSLSTPAAPMVDSLIARVGVMARGNAITLPVCGRDVKFTLEVLRGDSVEKTSRVWSGNERDQELLTEDALDDLIPSFLLTGQQTPAFGRRVSGVIEIADGSRRRKAAALTESDYRVLVGELDDEQMAALSRLGNDYRPTSAYERGQRYASRLQNEFAGNISALADAENISRKIITRCINTAKLPKSVVALFSHPGELSARSGDALQKAFTDKEELLKQQASNLHEQKKAGVIFEAEEVITLLTSVLKTSSASRTSLSSRHQFAPGATVLYKGDKMVLNLDRSRVPTECIEKIEAILKELEKPAP
modifications: Alexa Fluor 647 C2 maleimide label (DNA-carpet TIRFM assays); Alexa 488 or Alexa 594 label (FRET dimerisation assay)
notes: ParB of the F plasmid (ParBF, also called SopB); One molecule for the same construct with different dyes; ATPase and magnetic-tweezers results are printed for 'ParBF' without a dye; concentrations and ratios are per monomer; also called Alexa647-ParBF; WT ParBF; source: E. coli BL21 DE3 AI, purified (HisTrap, Mono S, S200 size exclusion)
For B2, the Kd [4] was about 18.5 nM, the “apparent koff of the ParAF-ParBF complex from the nsDNA carpet (ParBF signal), with CTP and parSF” value (ParAF-eGFP [5]) was 0.0138 s⁻¹ and the “stoichiometry N” value (ParAF-eGFP [5]) was 2.16 ParBF per ParAF (A:B ratio, monomers). The “apparent koff of the ParAF-ParBF complex from the nsDNA carpet (ParBF signal), with parSF” value (ParAF-eGFP [6]) was 0.0137 s⁻¹, the “stoichiometry N” value (ParAF-eGFP [6]) was 2.17 ParBF per ParAF (A:B ratio, monomers) and the “apparent koff of the ParAF-ParBF complex from the nsDNA carpet (ParBF signal), with CDP and parSF” value (ParAF-eGFP [7]) was 0.00883 s⁻¹. The “stoichiometry N” value (ParAF-eGFP [7]) was 2.53 ParBF per ParAF (A:B ratio, monomers), the “apparent koff of the ParAF-ParBF complex from the nsDNA carpet (ParBF signal), with CTP” value (ParAF-eGFP [8]) was 0.0108 s⁻¹ and the “stoichiometry N” value (ParAF-eGFP [8]) was 2.16 ParBF per ParAF (A:B ratio, monomers). For the same molecule, the “apparent koff of the ParAF-ParBF complex from the nsDNA carpet (ParBF signal)” value (ParAF-eGFP [9]) was 0.0148 s⁻¹ and the “stoichiometry N” value (ParAF-eGFP [9]) was 1.1 ParBF per ParAF (A:B ratio, monomers).

B3: ParBF^R121A (natural protein, F-plasmid (E. coli), UniProt P62558 1-323, looked up)
chain: MKRAPVIPKHTLNTQPVEDTSLSTPAAPMVDSLIARVGVMARGNAITLPVCGRDVKFTLEVLRGDSVEKTSRVWSGNERDQELLTEDALDDLIPSFLLTGQQTPAFGRRVSGVIEIADGSARRKAAALTESDYRVLVGELDDEQMAALSRLGNDYRPTSAYERGQRYASRLQNEFAGNISALADAENISRKIITRCINTAKLPKSVVALFSHPGELSARSGDALQKAFTDKEELLKQQASNLHEQKKAGVIFEAEEVITLLTSVLKTSSASRTSLSSRHQFAPGATVLYKGDKMVLNLDRSRVPTECIEKIEAILKELEKPAP
modifications: Alexa Fluor 647 C2 maleimide label (fluorescently labeled ParBF^R121A)
notes: ParB of the F plasmid (ParBF, SopB) with R121A in the Box II region of the CTPase domain; ATPase results are printed without a dye; also called Box II mutant ParBF^R121A; source: E. coli BL21 DE3 AI, purified (HisTrap, Mono S, S200 size exclusion)
For B3, the “apparent koff of the ParAF-ParBF^R121A complex from the nsDNA carpet (ParBF signal), with parSF” value (ParAF-eGFP [6]) was 0.013 s⁻¹, the “stoichiometry N” value (ParAF-eGFP [6]) was 1.12 ParBF per ParAF (A:B ratio, monomers) and the “apparent koff of the ParAF-ParBF^R121A complex from the nsDNA carpet (ParBF signal)” value (ParAF-eGFP [9]) was 0.013 s⁻¹. For the same molecule, the “stoichiometry N” value (ParAF-eGFP [9]) was 0.99 ParBF per ParAF (A:B ratio, monomers).

B4: ParBF^1-42-mCherry (domain or fragment, F-plasmid (E. coli))
chain: MKRAPVIPKHTLNTQPVEDTSLSTPAAPMVDSLIARVGVMAR
notes: ParBF^1-42 fused to the N-terminus of mCherry through an SGGG linker; His6 at the C-terminus of the fusion; Monomer by gel filtration; also called monomeric ParBF^1-42-mCherry; source: E. coli BL21 DE3 AI, purified (HisTrap after lysis in 6 M guanidinium chloride, S200 size exclusion); not shown: mCherry, C-terminal, kept
With B4 the ParAF-ATPase stimulation against ParBF^1-42 concentration: KA (apparent total concentration for half-maximum stimulation); pBR322 nsDNA [1] was 1.2 µM, the “apparent koff from the nsDNA carpet together with ParAF, ParBF^1-42-mCherry in the wash (ParBF signal)” value (ParAF-eGFP [10]) was 0.0148 s⁻¹ and the koff (ParAF-eGFP [9]) was 0.105 s⁻¹. The “stoichiometry N” value (ParAF-eGFP [9]) was 1.27 ParBF per ParAF (A:B ratio, monomers).

B5: ParBF^(1-42 R36A)-mCherry (domain or fragment, F-plasmid (E. coli))
chain: MKRAPVIPKHTLNTQPVEDTSLSTPAAPMVDSLIAAVGVMAR
notes: SGGG linker between ParBF^(1-42 R36A) and mCherry; His6 at the C-terminus of the fusion; source: E. coli BL21 DE3 AI, purified (HisTrap after lysis in 6 M guanidinium chloride, S200 size exclusion); not shown: mCherry, C-terminal, kept
With B5 the ParAF-ATPase stimulation against ParBF^(1-42 R36A) concentration: KA (apparent total concentration for half-maximum stimulation); pBR322 nsDNA [1] was 108 µM, the “apparent koff from the nsDNA carpet together with ParAF, ParBF^(1-42 R36A)-mCherry in the wash (ParBF signal)” value (ParAF-eGFP [10]) was 0.03 s⁻¹ and the “stoichiometry N” value (ParAF-eGFP [10]) was 0.92 ParBF per ParAF (A:B ratio, monomers). The “steady-state density on the DNA carpet relative to ParBF^1-42-mCherry” value (ParAF-eGFP [11]) was under 10% and the koff (ParAF-eGFP [9]) was 0.867 s⁻¹.
